US20160362487A1 (Regeneron, published 2016)

T1: biotinylated hIL-33 protein (R&D systems, Cat #3625-IL/CF) (human, UniProt O95760 112-270, biotinylated (sites not given))
T1 construct: Same commercial protein as m21, biotin-labelled; also called biotin-hIL-33
T1 sequence (looked up): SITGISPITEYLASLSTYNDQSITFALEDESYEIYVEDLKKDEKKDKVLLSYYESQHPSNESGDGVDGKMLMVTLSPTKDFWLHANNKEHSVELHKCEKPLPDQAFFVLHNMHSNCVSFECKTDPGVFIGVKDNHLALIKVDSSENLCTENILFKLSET

T2: cynomolgus monkey IL-33 expressed with a C-terminal hexahistidine tag (cynomolgus monkey)
T2 construct: also called MfIL-33-6His; Mf-IL-33-6His
T2 chain: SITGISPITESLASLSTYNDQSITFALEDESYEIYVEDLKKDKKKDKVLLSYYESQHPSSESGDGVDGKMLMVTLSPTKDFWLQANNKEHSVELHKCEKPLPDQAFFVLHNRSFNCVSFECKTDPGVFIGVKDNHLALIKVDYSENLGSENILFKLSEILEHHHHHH

T3: human IL-33 (R&D Systems, #3625-IL-010/CF) (human, UniProt O95760 112-270)
T3 construct: Commercial recombinant protein; also called hIL-33; interleukin-33
T3 sequence (looked up): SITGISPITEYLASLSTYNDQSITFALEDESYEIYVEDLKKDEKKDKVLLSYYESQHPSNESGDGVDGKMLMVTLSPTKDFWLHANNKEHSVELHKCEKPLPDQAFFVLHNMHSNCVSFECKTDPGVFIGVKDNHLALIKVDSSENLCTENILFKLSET


Assays:
[1] = target: T4, pre-formed complex of hIL-33 and captured hST2-MMH (human, UniProt O95760 112-270); assay: SPR 25C, 100 nM mAb over hIL-33/hST2-MMH complex
T4 construct: Ligand-receptor complex on the sensor: hST2-MMH captured by anti-myc mAb and saturated with 100 nM hIL-33; also called hIL-33 pre-complexed with hST2-MMH
Experimental: The ability of anti-IL-33 antibodies to bind to a pre-formed complex of IL-33 with ST2 was tested using Biacore T-200 instrument equipped with a real-time surface plasmon resonance biosensor. The experiment was performed at 25° C. with a running buffer composed of 0.01M HEPES pH 7.4, 0.15M NaCl, 3 mM EDTA, and 0.05% v/v Surfactant Tween-20 (HBS-ET). […] The captured hST2-MMH surface was then saturated by injecting 100 nM of human IL-33 (hIL-33; R&D Systems, #3625-IL-010/CF) for 3 minutes followed by a 3 minute injection of a 100 nM solution of the anti-IL-33 monoclonal antibody. The real-time binding response was monitored during the entire course of the experiment, and the observed binding response at 3 minutes after injection of anti-IL-33 antibody to the pre-formed complex of hIL-33 and captured hST2-MMH was recorded and tabulated and shown in Table 7. No non-specific binding of anti-IL-33 monoclonal antibody to the anti-myc tag capture surface was observed.

[2] = target: T1, biotinylated hIL-33 protein (R&D …); assay: competition ELISA, 30 pM biotin-hIL-33 on coated hST2-hFc
Experimental: (§1) The ability of anti-IL-33 antibodies to block either human IL-33 (hIL-33) or cynomologus monkey IL-33 binding to the human ST2 receptor was measured using a competition sandwich ELISA. […] The antibody/IL-33 mixtures were incubated for 1 hour at room temperature before they were transferred to the hST2-hFc-coated microtiter plates. After incubating for 1 hour at room temperature, the wells were then washed, and plate-bound biotin-hIL-33 was detected with streptavidin conjugated with horse-radish peroxidase (HRP) (Thermo Scientific, Cat # N200), and plate-bound MfIL-33-6His was detected with a HRP conjugated anti-His monoclonal antibody (Qiagen, #34460). All samples were developed with a TMB solution (BD biosciences, #51-2607KC) to produce a colorimetric reaction and then quenched by acidification with 1M sulfuric acid before measuring absorbance at 450 nm on a Victor X5 plate reader. Data analysis was performed using a sigmoidal dose-response model within Prism™ software. […] Percent blockade was calculated as the ratio of the reduction in signal observed in the presence of antibody relative to the difference between the signal with IL-33 alone and background (signal from HRP-conjugated secondary antibody or streptavidin alone). The absorbance measured for the constant concentration of biotin-hIL-33 or MfIL-33-6His alone is defined as 0% blocking and the absorbance measured for no added IL-33 is defined as 100% blocking.

[3] = target: T2, cynomolgus monkey IL-33 expressed with …; assay: SPR 25C, pH6.0 chase, mAb captured
Experimental: (§2) Equilibrium dissociation constants (KD values) for IL-33 binding to purified anti-IL-33 monoclonal antibodies were determined using a real-time surface plasmon resonance biosensor using a Biacore 4000 instrument. The Biacore sensor surface was first derivatized by amine coupling with either a polyclonal rabbit anti-mouse antibody (GE, # BR-1008-38) or with a monoclonal mouse anti-human Fc antibody (GE, # BR-1008-39) to capture anti-IL-33 monoclonal antibodies expressed with mouse or with human IgG4 constant regions, respectively. All Biacore binding studies were performed in 0.01M ADA pH 7.4, 0.15M NaCl, 3 mM EDTA, and 0.05% v/v Surfactant Tween-20 (ABS-ET running buffer). […] Association of either hIL-33 or MfIL-33-6His to the captured monoclonal antibody was monitored for 4 minutes and their dissociation in ABS-ET running buffer was monitored for 10 minutes. The effect of reduced pH on the binding of each anti-IL-33 antibody to either hIL-33 or MfIL-33-6His was studied using an in-line pH chase assay format in 0.01M ADA pH 6.0, 0.15M NaCl, 3 mM EDTA, and 0.05% v/v Surfactant Tween-20 (ABS-ET pH6 buffer). To achieve this, association of either hIL-33 or MfIL-33-6His to the captured monoclonal antibody was monitored for 4 minutes in ABS-ET running buffer. Following a 30 second dissociation of either hIL-33 or MfIL-33-6His in ABS-ET running buffer, ABS-ET pH6 buffer was injected for 3 minutes, and the analyte dissociation under the low-pH conditions was measured. All the binding kinetic experiments were performed at both 25° C. and 37° C. Kinetic association (kₐ) and dissociation (kd) constants were determined by fitting the real-time sensorgrams to a 1:1 binding model using Scrubber 2.0c curve fitting software. Binding dissociation equilibrium constants (KD) and dissociative half-lives (t½) were calculated from the kinetic rate constants as: […]

[4] = target: T3, human IL-33 (R&D Systems, …); assay: SPR 25C, pH6.0 chase, mAb captured
Experimental: as §2

[5] = target: T2, cynomolgus monkey IL-33 expressed with …; assay: competition ELISA, 150 pM MfIL-33-6His on coated hST2-hFc
Experimental: as §1

Binder	Antibody Binding Response (RU) [1] [RU]	% Maximum blocking [2] [%]	IC50 [2] [nM]	koff [3] [s⁻¹]	t½ [3] [min]	t½ Ratio (pH 7.4/pH 6.0) [3]	koff [4] [s⁻¹]	t½ [4] [min]	t½ Ratio (pH 7.4/pH 6.0) [4]	% Maximum blocking [5] [%]	IC50 [5] [nM]
H4H9640P (antibody, human IgG4, V domains shown, Human IgG4 Fc (H4H)) VH: QVQLQESGPGLVKPSETLSLTCTVSGGSISSYYWSWIRQPPGKGLELIGYIYYSGSTNYNPSLKSRVTISVDTSKNHFSLKLSSVTAADTAVYYCARSQYTSSWYGSFDIWGQGTMVTVSS VL: DIQMTQSPSSVSASVGDRVTITCRASQGISTWLAWFQQKPGKAPKLLIYAASTLQGGVPSRFSGSGSGPEFTLTISSLQPEDFATYYCQQANSFPWTFGQGTKVEIK	-1	78	0.35	0.000501	23	0.4	0.000657	18	2.8	73	3.5
H4H9633P (antibody, human IgG4, V domains shown, Human IgG4 Fc (H4H)) VH: EVQLVESGGGLVQPGGSLRLSCAASGFTFSSYVMSWVRQAPGKGLEWVSSISGNGGSTNYADSVKGRFTISRDNSKNTLFLEMNSLRAEDTAVYYCAKSLGTTTTFLGFDYWGQGTLVTVSS VL: DIQMTQSPSSVSASVGDRVTITCRASQGISSWLAWYQQKPGKAPKLLIYAASSLQSGVPSRFSGSGSGTYFTLTISSLQPEDFATYYCQQANSFPLTFGGGTKVEIK	-1	66	0.44	0.00287	4	0.3	0.00081	14	2.9		
H4H9660P (antibody, human IgG4, V domains shown, Human IgG4 Fc (H4H)) VH: EVQLVESGGGLVQPGGSLRLSCAASGITLSSYGMSWVRQAPGKGLEWVASIFGSGGGPYYADSVKGRFTMSRDNSKNTLYLQMNSLRAEDTAVYYCAKDRYSGSYYGGFDYWGRGTLVTVSS VL: DIQMTQSPSSVSASVGDRVTITCRASQGITSWLAWYQQKPGKAPTLLIYAASSLQTGVPSRFSGSGSGTDFTLTISSLQPEHFATYYCQQANSFPPTFGGGTKVEIK	-1	57	0.31	0.00108	11	0.7	0.000708	16	3.2	68	4.2
H1M9565N (antibody, mouse IgG1, V domains shown, Human variable domains, mouse IgG1 Fc (H1M)) VH: QVTLKESGPVLVKPTESLTLTCSVSGFSLSNVRMGVSWIRQSPGKALEWLAHIFSNDEKSYTTSLKTRLTISKDTSRSQVVLTMTDMDPGDTATYYCARIRNLAFNYWGQGTLVTVSS VL: not shown	11	68	22	0.000143	81	2				86	12

Second part, the binder after the results:

Antibody Binding Response (RU) [1] [RU]	% Maximum blocking [2] [%]	IC50 [2] [nM]	koff [3] [s⁻¹]	t½ [3] [min]	t½ Ratio (pH 7.4/pH 6.0) [3]	koff [4] [s⁻¹]	t½ [4] [min]	t½ Ratio (pH 7.4/pH 6.0) [4]	% Maximum blocking [5] [%]	IC50 [5] [nM]	Binder
131	55	0.19	0.000302	38	1.2	0.000178	65	1.4	38	0.84	H1M9568N (antibody, mouse IgG1, V domains shown, Human variable domains, mouse IgG1 Fc (H1M)) VH: QVLLVQSGAEVKKPGATVKVSCKASGSTFTGYYMHWVRQAPGQGLEWMGWINPNNGGTNYAQKFQGRVTMTRDTSISTAYMELSRLRSDDTAVYYCARELRYNWKSWGQGTLVTVSS VL: EIVLTQSPGTLSLSPGERVTLSCRASQSVGRPYLAWYQQIPGQAPRLLIYGASSRATDIPDRFSGNGSGTDFTLTISRLEPEDFAVYYCQQYDNSPYTFGQGTRLEIK
-1	80	0.45	0.0358	0.3	2.7	0.00128	9	5.7			H4H9629P (antibody, human IgG4, V domains shown, Human IgG4 Fc (H4H)) VH: EVQLVESGGGLVQPGGSLRLSCAASGFTFRSFAMSWVRQAPGKGLELVSDLRTSGGSTYYADSVKGRLTISRDNSKNTLYLQMNSLRAEDTAVYYCAKSHYSTSWFGGFDYWGQGTLVTVSS VL: DIQMTQSPSSVSASVGDRVTITCRASQGFSSWLAWYQQKPGKAPKLLIYAASSLQSGVPSRFSGSGSGTDFTLTITNLQPEDFATYYCQQANSFPLTFGGGTKVEIK
-1	78	0.4	0.000123	94	0.3	0.000664	17	3.9	92	0.6	H4H9659P (antibody, human IgG4, V domains shown, Human IgG4 Fc (H4H)) VH: QVQLVQSGAEVKKPGASVKVSCKASGYTFNSYGISWVRQAPGQGLEWMGWISSHNGNSHYVQKFQGRVSMTTDTSTSTAYMELRSLRSDDTAVYYCARHSYTTSWYGGFDYWGQGTLVTVSS VL: DIQMTQSPSSVSASVGDRVTITCRASQGFSSWLAWYQQKPGKAPQLLIYAASSLQSGVPSRFSGSGSGSDFTLTISSLQPEDFATYYCQQANSFPLTFGGGTKVEIK
13	69	0.32	0.000126	91	1.3	0.00011	105	11	41	0.22	H1M9566N (antibody, mouse IgG1, V domains shown, Human variable domains, mouse IgG1 Fc (H1M)) VH: EVQLLESGGDLVQPGGSLRLSCAASGFTFSSYAMSWVRQAPGKGLEWVSVISGSGSSTDYADSVKGRFTISRDNSRDTLHLQMNSLRAEDTAVYYCAKTFYYFYGLDVWGQGTTVTVSS VL: DIQMTQSPSSLSASLRDRVTITCRASQGISNYLAWYQQKPGKVPKVLIYAASTLQSGVPSRFSGSGSGTVFTLTISSLQTEDVATYYCQKYSSAPFTFGPGTKVDIK
